Measurements as given in PMC8809534, “Gating choreography and mechanism of the human proton-activated chloride channel ASOR” (Science Advances, 2022).

Target: the molecule itself
Assay: cryo-EM structure; single-particle cryo-EM of purified ASOR at pH 7.5 (digitonin, GDN or saposin nanodiscs) and at pH 4.5 (GDN or saposin nanodiscs; sodium citrate added); 5 mM Hepes, 150 mM NaCl; C3 symmetry; resting, activated and desensitized conformations

B1: human ASOR (TMEM206) proton-activated chloride channel (natural protein)
chain: not shown
notes: full-length human ASOR (TMEM206), UniProt Q9H813; codon-optimised synthetic cDNA; GFP tag removed with PreScission protease; residues left by the cleavage site are not described; also called PAC; acid-sensitive outwardly rectifying channel; not shown: GFP, C-terminal, cleaved
stoichiometry N: 3
